Assay results taken from patent US10808024B2, “Antibodies against immunocomplexes comprising cyanobacterial cyclic peptide hepatotoxins” (priority 2015, dated 2020).
Entries after “also recorded” stand apart in the source; their conditions may differ.

Assays:
Type in all cases: binding
[1] = test system: immunocomplex of CCPH variant and biotinylated anti-Adda mAb; experiment: Quantitative lateral flow test with streptavidin up-converting nanoparticles
[2] = test system: immunocomplex of CCPH variant and biotinylated anti-Adda mAb; experiment: Single-step non-competitive TR-IFMA with SA51D1 scFv-AP, toxin standards
[3] = test system: anti-Adda mAb-MC-LR immunocomplex
[4] = test system: immunocomplexes of MC-XZ and Nod-R with anti-Adda mAb; experiment: Cross-reactivity profile of anti-IC binders by single-step non-competitive assay (FIG. 5); conditions: toxin 0.1 to 60 μg/L
[5] = test system: immunocomplexes of CCPH variants and anti-Adda mAb; experiment: Screening and cross-reactivity studies of anti-IC scFv-AP binders, specificity class
[6] = test system: CCPH in unknown water samples, immunocomplex with anti-Adda mAb; experiment: Anti-IC immunoassay profiling of blinded water samples (Abraxis proficiency testing); conditions: sample MC-TK8, MC-LR + MC-RR + MC-YR, 4 + 1 + 1 μg/l

Molecule: C/C=C1/C(=O)N[C@@H](C(=O)O)[C@H](C)C(=O)N[C@@H](CCCNC(=N)N)C(=O)N[C@@H](/C=C/C(C)=C/[C@H](C)[C@H](Cc2ccccc2)OC)[C@H](C)C(=O)N[C@@H](C(=O)O)CCC(=O)N1C [Nodularin, reference compound]
- Signal-to-background ratio [1]: 38

Molecule: MC-LA
- Sensitivity [2]: 0.05 µg/L

Molecule: MC-LR
- Sensitivity (blank+3SD) [3]: below 0.3 μg/L

B1: SA55D1: MC-LZ subgroup-specific anti-IC binder (antibody, V domains shown)
VH: EVQLLESGGGLVQPGGSLRLSCAASGFTFSSDVMHWVRQAPGKGLEWVSVISPYDGYTRYADSVKGRFTISRDNSKNTLYLQMNSLRAEDTAVYYCARHKGGYRRAYMDYWGQGTLVTVSS
VL: EIVLTQSPGTLSLSPGERATLSCRASQSVSSSALAWYQQKPGQAPRLLIYGASSRATGVPDRFSGSGSGTDFTLTISRLEPEDFAVYYCQQSYSYPWTFGQGTKVEIKRT
modifications: Clone SA55D1; DOMAIN (31)..(35) CDR1; DOMAIN (50)..(66) CDR2; DOMAIN (99)..(110) CDR3; DOMAIN (24)..(35) CDR1; DOMAIN (51)..(57) CDR2; DOMAIN (90)..(98) CDR3
- Specificity (cross-reactive pattern) [4]: specific towards MC-XZ, where X=L (Leu)
- Specificity of anti-IC antibody (CCPH immunocomplexes recognized) [5]: MC-LZ subgroup-specific

B2: SA34G1: variant-specific anti-IC antibody, Nod-R (antibody, V domains shown)
VH: EVQLLESGGGLVQPGGSLRLSCAASGFTFSDYWMHWVRQAPGKGLEWVSEIIPYSGYTNYADSVKGRFTISRDNSKNTLYLQMNSLRAEDTAVYYCARETWGYPSFDYWGQGTLVTVSS
VL: EIVLTQSPGTLSLSPGERATLSCRASQSVSSSNLAWYQQKPGQAPRLLIYGASSRATGVPDRFSGSGSGTDFTLTISRLEPEDFAVYYCQQSSSTPWTFGQGTKVEIKRT
modifications: Clone SA34G1; DOMAIN (31)..(35) CDR1; DOMAIN (50)..(66) CDR2; DOMAIN (99)..(108) CDR3; DOMAIN (24)..(35) CDR1; DOMAIN (51)..(57) CDR2; DOMAIN (90)..(98) CDR3
- Specificity of anti-IC antibody (CCPH immunocomplexes recognized) [5]: recognize immunocomplexes comprising Nod-R

B3: SA56B8: variant-specific anti-IC antibody, MC-LR (antibody, V domains shown)
VH: EVQLLESGGGLVQPGGSLRLSCAASGFTFSDYWMHWVRQAPGKGLEWVSYINPYGGYTDYADSVKGRFTISRDNSKNTLYLQMNSLRAEDTAVYYCARYVRRHFDYWGQGTLVTVSS
VL: EIVLTQSPGTLSLSPGERATLSCRASQSVSSSYLAWYQQKPGQAPRLLIYGASSRATGVPDRFSGSGSGTDFTLTISRLEPEDFAVYYCQQSSSYPWTFGQGTKVEIKRT
modifications: Clone SA56B8; DOMAIN (31)..(35) CDR1; DOMAIN (50)..(66) CDR2; DOMAIN (99)..(106) CDR3; DOMAIN (24)..(35) CDR1; DOMAIN (51)..(57) CDR2; DOMAIN (90)..(98) CDR3
- Signal (%) with MC-LW ([4]; MC-LW): below 20%
- Specificity (cross-reactive pattern) [4]: MC-LR and MC-dmLR specific
- Specificity of anti-IC antibody (CCPH immunocomplexes recognized) [5]: recognize immunocomplexes comprising MC-LR; also recorded: MC-LR specific

B4: SA58A12: XR subgroup-specific anti-IC antibody (antibody, V domains shown)
VH: EVQLLESGGGLVQPGGSLRLSCAASGFTFSNYGMHWVRQAPGKGLEWVSEIWPNNGTTNYADSVKGRFTISRDNSKNTLYLQMNSLRAEDTAVYYCARESGQWWYGVFDYWGQGTLVTVSS
VL: EIVLTQSPGTLSLSPGERATLSCRASQSVSSSNLAWYQQKPGQAPRLLIYGASSRATGVPDRFSGSGSGTDFTLTISRLEPEDFAVYYCQQSSSYPWTFGQGTKVEIKRT
modifications: Clone SA58A12; DOMAIN (31)..(35) CDR1; DOMAIN (50)..(65) CDR2; DOMAIN (98)..(110) CDR3; DOMAIN (24)..(35) CDR1; DOMAIN (51)..(57) CDR2; DOMAIN (90)..(98) CDR3
- Specificity (cross-reactive pattern) [4]: specific towards MC-XZ where Z=R (Arg) and also towards Nod-R
- Specificity of anti-IC antibody (CCPH immunocomplexes recognized) [5]: specific for a subgroup XR

B5: SA32C11: variant-specific anti-IC antibody, Nod-R (antibody, V domains shown)
VH: EVQLLESGGGLVQPGGSLRLSCAASGFTFSDYWMHWVRQAPGKGLEWVSEINTSNGNTYYADSVKGRFTISRDNSKNTLYLQMNSLRAEDTAVYYCARESWWPYSFDYWGQGTLVTVSS
VL: EIVLTQSPGTLSLSPGERATLSCRASQSVSSSNLAWYQQKPGQAPRLLIYGASSRATGVPDRFSGSGSGTDFTLTISRLEPEDFAVYYCQQSSSLPWTFGQGTKVEIKRT
modifications: Clone SA32C11; DOMAIN (31)..(35) CDR1; DOMAIN (50)..(66) CDR2; DOMAIN (99)..(108) CDR3; DOMAIN (24)..(35) CDR1; DOMAIN (51)..(57) CDR2; DOMAIN (90)..(98) CDR3
- Specific anti-IC assay result ([6]; listed as Nod5): not
- Specificity (cross-reactive pattern) [4]: specificity only towards Nod-R
- Specificity of anti-IC antibody (CCPH immunocomplexes recognized) [5]: recognize immunocomplexes comprising Nod-R; also recorded: nodularin-R specific
- Recognition of nine CCPH variants in lateral flow test ([1]; each CCPH at 1 μg/l): Only Nodularin was recognized

B6: SA57D4: subgroup-specific anti-IC antibody (antibody, V domains shown)
VH: EVQLLESGGGLVQPGGSLRLSCAASGFTFSGYGMHWVRQAPGKGLEWVSAISDLNGSTYYADSVKGRFTISRDNSKNTLYLQMNSLRAEDTAVYYCARNGWGDMDLWGQGTLVTVSS
VL: EIVLTQSPGTLSLSPGERATLSCRASQSVSSSALAWYQQKPGQAPRLLIYGASSRATGVPDRFSGSGSGTDFTLTISRLEPEDFAVYYCQQSYSLPWTFGQGTKVEIKRT
modifications: Clone SA57D4; DOMAIN (31)..(35) CDR1; DOMAIN (50)..(66) CDR2; DOMAIN (99)..(106) CDR3; DOMAIN (24)..(35) CDR1; DOMAIN (51)..(57) CDR2; DOMAIN (90)..(98) CDR3
- Specificity of anti-IC antibody (CCPH immunocomplexes recognized) [5]: subgroup-specific

B7: SA32F1: variant-specific anti-IC antibody, Nod-R (antibody, V domains shown)
VH: EVQLLESGGGLVQPGGSLRLSCAASGFTFSNYYMHWVRQAPGKGFEWVSSIITNGGETDYADSVKGRFTISRDNSKNTLYLQMNSLRAEDTAVYYCARLPVTRPYYAVFDYWGQGTLVTVSS
VL: EIVLTQSPGTLSLSPGERATLSCRASQSVSSSALAWYQQKPGQAPRLLIYGASSRATGVPDRFSGSGSGTDFTLTISRLEPEDFAVYYCQQSSSYPWTFGQGTKVEIKRT
modifications: Clone SA32F1; DOMAIN (31)..(35) CDR1; DOMAIN (50)..(66) CDR2; DOMAIN (99)..(110) CDR3; DOMAIN (24)..(35) CDR1; DOMAIN (51)..(57) CDR2; DOMAIN (90)..(98) CDR3
- Specificity of anti-IC antibody (CCPH immunocomplexes recognized) [5]: recognize immunocomplexes comprising Nod-R

B8: SA41B5: variant-specific anti-IC antibody, MC-RR (antibody, V domains shown)
VH: EVQLLESGGGLVQPGGSLRLSCAASGFTFSSDVMHWVRQAPGKGLEWVSVINPYDGSTYYADSVKGRFTISRDNSKNTLYLQMNSLRAEDTAVYYCARAVAGQGGYFDYWGQGTLVTVSS
VL: EIVLTQSPGTLSLSPGERATLSCRASQSVSSSNLAWYQQKPGQAPRLLIYGASSRATGVPDRFSGSGSGTDFTLTISRLEPEDFAVYYCQQSSSLPWTFGQGTKVEIKRT
modifications: Clone SA41B5; DOMAIN (31)..(35) CDR1; DOMAIN (50)..(66) CDR2; DOMAIN (99)..(109) CDR3; DOMAIN (24)..(35) CDR1; DOMAIN (51)..(57) CDR2; DOMAIN (90)..(98) CDR3
- Specific anti-IC assay result [6]: positive
- Specificity of anti-IC antibody (CCPH immunocomplexes recognized) [5]: recognize immunocomplexes comprising MC-RR; also recorded: MC-RR specific

B9: SA44E11: anti-IC antibody recognizing immunocomplexes comprising MC-RR (antibody, V domains shown)
VH: EVQLLESGGGLVQPGGSLRLSCAASGFTFSDYYMHWVRQAPGKGLEWVSEISTYNGYTDYADSVKGRFTISRDNSKNTLYLQMNSLRAEDTAVYYCARGGEPGDDWGQGTLVTVSS
VL: EIVLTQSPGTLSLSPGERATLSCRASQSVSSSALAWYQQKPGQAPRLLIYGASSRATGVPDRFSGSGSGTDFTLTISRLEPEDFAVYYCQQYSSLPWTFGQGTKVEIKRT
modifications: Clone SA44E11; DOMAIN (31)..(35) CDR1; DOMAIN (50)..(66) CDR2; DOMAIN (99)..(105) CDR3; DOMAIN (24)..(35) CDR1; DOMAIN (51)..(57) CDR2; DOMAIN (90)..(98) CDR3
- Specificity of anti-IC antibody (CCPH immunocomplexes recognized) [5]: recognize immunocomplexes comprising MC-RR
